Tested on: MS2 coat protein
Test: apparent KD of MS2 coat protein; designed switch direction (-1 OFF switch, 1 ON switch): -1; higher = weaker reporter binding
In short: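 Each step of the titration lasted 0.8–1.5 h at the lowest concentration and 10–20 min at the highest. The protein, SNAP-549-labelled MS2 coat protein, went from 0.7 or 1.5 nM doubling to 3 µM over RNA switches transcribed on Illumina chips by stalled E. coli RNA polymerase. Normalised cluster fluorescence was curve-fitted, and the per-design median over clusters is given as apparent KD.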

[1] = input ligand: microRNA oligo, concentration not stated
[2] = Eterna round: R95, input ligand: FMN 200 uM
[3] = Eterna round: R95, input ligand: microRNA oligo, concentration not stated
[4] = Eterna round: R95, input ligand: none

| Sequence | apparent KD of MS2 coat protein (input ligand: FMN 200 uM) [µM] | apparent KD of MS2 coat protein [1] [µM] | apparent KD of MS2 coat protein (input ligand: none) [µM] | apparent KD of MS2 coat protein [2] [µM] | apparent KD of MS2 coat protein [3] [µM] | apparent KD of MS2 coat protein [4] [µM] |
| --- | --- | --- | --- | --- | --- | --- |
| AGAUCAAUCACGAAAGUGAUUGAUCAAAUUAGUUUUUAAACAUGAGGAUCACCCAUGUCCUAGUGGGCUAGUCUUAU [Mat - Sensor v2 - var 2 - Mod - D142] (Eterna round: R96, puzzle: Sensor v2, turn-off variant 2) | 0.254 | 0.177 | 0.249 | – | – | – |
| UGAGUGCUGCGAGGAUAUACAUGAGGAUCACCCAUGUAUUAGUGUGAGGCUUUGCCUCACACAAUGUAGAAGGCGCAGUACUCU [JL ENG2 1.03] (Eterna round: R96, puzzle: Exclusion NG 2) | 0.00574 | 0.0103 | 0.0131 | – | – | – |
| UUGAAGUCAUCAGGAUAUAGUAUAAAAGACAUAUAUUUUUUCAAACAUGAGGAUCACCCAUGUCGCUAGAAGGGAUUAUAGAUU [JR_ExcNG2_Sub081] (Eterna round: R96, puzzle: Exclusion NG 2) | – | 0.0347 | – | – | – | – |
| GUAGAUCAGGCUUUCAUUGACAUGAGGAUCACCCAUGUUUUGAAAGGGUGAGAGAGGUGCUUCAUAUUCAGCUCUGA [JR_Sensorv2_tov_Sub1218] (Eterna round: R96, puzzle: Sensor v2, turn-off variant) | 0.0764 | 0.0553 | 0.0611 | – | – | – |
| CAGUACUGAGGAUAUACAUGAGGAUCACCCAUGUGUUCCAGCUAGGAAACUAGCAAAUGUAGAAGGCAGUACUG [Ex3: 827] (Eterna round: R96, puzzle: Exclusion 3) | – | 0.216 | – | – | – | – |
| UGUUGUUACGUAGGAUAUUGUCAACAGGCAAUAGGAUAUGCGAAAGCAGAAGGAUCGCCAACAGGCGAGAAGGACGGGUUAACA [pwkr exNG2 2xF7 2xFMN.2] (Eterna round: R96, puzzle: Exclusion NG 2) | 0.849 | 0.771 | 0.134 | – | – | – |
| UUUUUGUGAGGAUAUGCGUAGUAGAACAAUAGUACUACUACGUAGAAGGCACAUGAGGAUCACCCAUGUUCCUC [Fiskers Ex 4 Super stable 44 mod 15] (Eterna round: R96, puzzle: Exclusion 4) | 0.339 | 0.0347 | 0.0431 | – | – | – |
| UAAUACAAGUAAGGAUUCUACAUGAGGAUCACCCAUGUGCUCGUCUUAUAAAGUACUAUCACGAAAGUGAUAGUACA [Mat - Sensor v3 - turn-off var 1 - Eli Mod - D99] (puzzle: Sensor v3, turn-off variant 1) | – | – | – | 0.0235 | 0.148 | 0.0264 |
| UUAUAAAGAGUGAGGAUAUGCUGGUCCAUGGAUCAGCAGAAGGCACAUGAGGAUCACCCAUGUAAAAUAAUAUU [Mat - Exclusion 4 - JL Mod - D41] (puzzle: Brourd's mod of Exclusion 4) | – | – | – | – | 0.0187 | – |
| UUUAGUUCAGGAUAUGUAGUUUUAAACAUGAGGAUCACCCAUGUAGAACCUGAUCCUGCUACAGAAGGGAACAUUU [Mat - Exclusion 5 - Eli Mod - D14] (Eterna round: R97, puzzle: Exclusion 5) | 0.032 | – | 0.0182 | – | – | – |
| AGUCCGUCAGGAUAUGCAAUUGUGGACAUGAGGAUCACCCAUGUAACGUGGGCUUGGUUUGUAGAAGGGACGUGCA [EX5 #91] (Eterna round: R97, puzzle: Exclusion 5) | 0.351 | – | 0.442 | – | – | – |
| AUAAAUAGCGAGGAUAUCGUAUCGGAAACGAUACGAGAAGGCGUAACAUGAGGAUCACCCAUGUGUCCUCAAUA [Mat - Exclusion 6 - Eli Mod - D6] (Eterna round: R97, puzzle: Exclusion 6) | 0.801 | – | 0.0872 | – | – | – |
| UAGAAGUUCAACGAGUGAAACAUGAGGAUCACCCAUGUGGUGGUAAGGAACAAGCUUUUUGCACGUACUUAUGAGGA [JR_SV3TOV1_Sub004] (puzzle: Sensor v3, turn-off variant 1) | – | – | – | 0.287 | 0.4 | 0.452 |
| GUACUGAAGCUUUGCUUUAAUCGUACAUGAGGAUCACCCAUGUAGGAUAUGGUAGGCAAAGCUUACCAGAAGGACAGAGUGAUC [Mat - Exclusion NG 3 - Mod of JL - D67] (Eterna round: R96, puzzle: Exclusion NG 3) | 0.103 | 0.0921 | 0.0931 | – | – | – |
| AAGGGUAAAGGAUAUACAUGAGGAUCACCCAUGUUGAGGAAGGUUAGAUGAGGAGUAAGUAGAAGGUUAGACGA [JR_Exclu3_Sub089] (puzzle: Exclusion 3) | – | – | – | 0.0571 | 0.0526 | 0.0696 |
| AAAGAACAUGAGGAUCACCCAUGUAAGGAUAUGCAAAGAAAGAAAGAAGAAAGAGAAAGCAGAAGGUACAAGAA [JR_Exclu1_Sub071] (puzzle: Exclusion 1) | – | – | – | 0.0344 | 0.0441 | 0.0368 |
| AUUUAAUUUAAUAAGAUCACAUGAGGAUCACCCAUGUAUAUAUAGGAUAUCAGCUCGAUUAGAGCUGAGAAGGAUAUAUACUAU [ExNG3/7-B1] (Eterna round: R96, puzzle: Exclusion NG 3) | – | 0.422 | – | – | – | – |

| Sequence | apparent KD of MS2 coat protein (input ligand: FMN 200 uM) [µM] | apparent KD of MS2 coat protein [1] [µM] | apparent KD of MS2 coat protein (input ligand: none) [µM] | apparent KD of MS2 coat protein [2] [µM] | apparent KD of MS2 coat protein [3] [µM] | apparent KD of MS2 coat protein [4] [µM] |
| --- | --- | --- | --- | --- | --- | --- |
| CGAUGGCGAGGAUAUACAUGAGGAUCACCCAUGUGAGAGAUACUAGUGAGGUCGAUUAGUAGAAGGCGCUGUCG [Mat - Exclusion 3 - Eli Mod - D70] (Eterna round: R97, puzzle: Exclusion 3) | 0.883 | – | 0.0386 | – | – | – |
| AAAAUGUGAGGAUAUCAGGUGUGCUAGCGUACUGGUACAUCUGAGAAGGCACAUGAGGAUCACCCAUGUUUCUU [Mat - Exclusion 4 - Mod of JL - D44] (puzzle: Exclusion 4) | – | – | – | – | 0.0225 | – |
| AGUACUAACACGAGAGUGUUAGUACAAUAAGCUUGUGGAACAUGAGGAUCACCCAUGUCCUCAUAAGCUCGUCUUAU [Mat - Sensor v3 - Turn-off var 2 - D99] (puzzle: Sensor v3, turn-off variant 2) | – | – | – | 0.0152 | 0.0703 | 0.0134 |
| CGAUGUAGAGGAUAUACGUGAAUUUUGUUAUUUUUUAAUUUACAUGAGGAUCACCCAUGUAGAAGGCUAUAUCG [JR_Ex2_Sub087] (Eterna round: R97, puzzle: Exclusion 2) | 0.0919 | – | 0.0222 | – | – | – |
| UCGUUCCGUGUAGGAUAUUGGCCUGCUCUGGGUCGAGAAGGACAUGAGGAUCACCCAUGUAUGUUAUUAUCACGCGUGGCGCAU [Design 81] (Eterna round: R96, puzzle: Exclusion NG 1) | 0.0617 | 0.0229 | 0.0318 | – | – | – |
| CUGAGGUAGCGGUCCUAUAACAUGAGGAUCACCCAUGUACCUUGCUUCGAGCUUUUAGCUCGUCUUAUGAUUCUCGG [Mat - Sensor v3 - turn-off var 1 - JL Mod - D37] (puzzle: Sensor v3, turn-off variant 1) | – | – | – | 0.443 | 0.502 | 0.56 |
| GAUUAUGCGAGCUUUAGGGACAUGAGGAUCACCCAUGUUCGUCUUAUUGGUCUGGAUGCACUGACAUACCUAAAUCU [JMF 82] (puzzle: Sensor v3, turn-off variant 1) | – | – | – | 0.0171 | 0.0255 | 0.0215 |
| AACUCACAUGAGGAUCACCCAUGUGAGGAUAUGUGAGUGUGUAUGUUAUUAUAUAUUUAUAGAAGGCGCGUGAU [JR_Exc1_Sub029] (Eterna round: R97, puzzle: Exclusion 1) | 0.0245 | – | 0.0231 | – | – | – |
| CAAUUCCGAGGAUAUACAUGAGGAUCACCCAUGUCGGGCCUCAGCGUUUAGCGCGUAAGUAGAAGGUGGGUUUC [JL Riri mod 6] (puzzle: Exclusion 3) | – | – | – | – | 0.0295 | – |
| UAAUAAUAGUCAGGAUAUAGUUAUUAUAAUAUACUAGAAGGGACACAUGAGGAUCACCCAUGUUUUAUAAUUUGUAAUUUAAAU [5th something] (Eterna round: R96, puzzle: Exclusion NG 1) | – | 0.0162 | – | – | – | – |
| UCCUUACAUGAGGAUCACCCAUGUCAGGAUAUCUCCACACUGCGCUUGCGCAGUGUAUAGAGAAGGGACAGGCU [JL ViennaUCT Aner mod 6] (puzzle: Exclusion 1) | – | – | – | 0.0334 | 0.0265 | 0.0358 |
| AAAUGGCAAGGAUAUACAGUAAUGAGGCUUAUGUCCGCUAAACAUGAGGAUCACCCAUGUAGAAGGUGCAAAGA [Maarear] (Eterna round: R97, puzzle: Exclusion 2) | 0.0691 | – | 0.0424 | – | – | – |
| AAUAAACAUGAGGAUCACCCAUGUGAGGAUAUCGAAAUAAAUAAUAAAAUAAAUAAAACGAGAAGGCACAAUAA [JMF most obvious solution 3] (puzzle: Exclusion 1) | – | – | – | 0.0404 | 0.0462 | 0.0475 |
| GUAAAGAGAGGAUAUACAUGAGGAUCACCCAUGUACGACCAGCAGAAAUGGUCCUCGAGUAGAAGGCUCGGGUA [Araris] (Eterna round: R97, puzzle: Exclusion 3) | 0.239 | – | 0.0517 | – | – | – |
| GCAGCUUAGUUAACAGACUGUUACAUGAGGAUCACCCAUGUGCAGGAUAUGGUCUGGAUUACAGGCCAGAAGGGUACAAGCUGC [Eli exng3 - 016] (Eterna round: R96, puzzle: Exclusion NG 3) | 0.0128 | 0.00937 | 0.0142 | – | – | – |
| CUUUGGGCAGGAUAUGCUGUUUGUGACAUGAGGAUCACCCAUGUGAUGCAGUUUGGGUGUGCAGAAGGGCCUGAGA [JR_E5_Sub030] (puzzle: Exclusion 5) | – | – | – | 0.115 | 0.0726 | 0.11 |

From the supplement of paper PMC9170038
